Biological target: CD44v3 (Homo sapiens, UniProt P16070)
Assay: MST

CD44v3, sequence (P16070 21-649): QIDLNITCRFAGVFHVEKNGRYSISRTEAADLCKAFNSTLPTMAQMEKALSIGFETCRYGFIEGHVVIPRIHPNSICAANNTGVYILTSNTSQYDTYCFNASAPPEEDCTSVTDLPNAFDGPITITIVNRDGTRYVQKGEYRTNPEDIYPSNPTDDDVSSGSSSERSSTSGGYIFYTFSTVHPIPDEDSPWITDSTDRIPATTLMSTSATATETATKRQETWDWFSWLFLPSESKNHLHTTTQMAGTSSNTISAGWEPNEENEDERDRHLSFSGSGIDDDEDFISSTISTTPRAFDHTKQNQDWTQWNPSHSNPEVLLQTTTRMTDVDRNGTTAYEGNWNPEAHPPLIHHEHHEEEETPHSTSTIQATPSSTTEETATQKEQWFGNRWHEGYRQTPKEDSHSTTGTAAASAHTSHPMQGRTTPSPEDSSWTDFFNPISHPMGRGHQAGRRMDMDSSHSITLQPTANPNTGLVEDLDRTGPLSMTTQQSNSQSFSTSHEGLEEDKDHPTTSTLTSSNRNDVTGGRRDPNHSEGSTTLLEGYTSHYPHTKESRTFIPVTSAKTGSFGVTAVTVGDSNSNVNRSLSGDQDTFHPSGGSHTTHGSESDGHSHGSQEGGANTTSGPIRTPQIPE

Kd: 9.47 nM
B1: TrkA (protein)
chain: AAPCPDACCPHGSSGLRCTRDGALDSLHHLPGAENLTELYIENQQHLQHLELRDLRGLGELRNLTIVKSGLRFVAPDAFHFTPRLSRLNLSFNALESLSWKTVQGLSLQELVLSGNPLHCSCALRWLQRWEEEGLGGVPEQKLQCHGQGPLAHMPNASCGVPTLKVQVPNASVDVGDDVLLRCQVEGRGLEQAGWILTELEQSATVMKSGGLPSLGLTLANVTSDLNRKNVTCWAENDVGRAEVSVQVNVSFPASVQLHTAVEMHHWCIPFSVDGQPAPSLRWLFNGSVLNETSFIFTEFLEPAANETVRHGCLRLNQPTHVNNGNYTLLAANPFGQASASIMAAFMDNPFEFNPEDPIPVSFSPVDTNSTSGDPVEKKDETPFGVSVAVG
modifications: NGF
